Assay results taken from the DeepSol protein solubility set.

Assay: soluble on expression in E. coli; label from the status in PepcDB or PDB records

Sequence | soluble on expression in E. coli
MGSKKLKRVGLSQELCDRLSRHQILTCQDFLCLSPLELMKVTGLSYRGVHELLCMVSRACAPKMQTAYGIKAQRSADFSPAFLSTTLSALDEALHGGVACGSLTEITGPPGCGKTQFCIMMSILATLPTNMGGLEGAVVYIDTESAFSAERLVEIAESRFPRYFNTEEKLLLTSSKVHLYRELTCDEVLQRIESLEEEIISKGIKLVILDSVASVVRKEFDAQLQGNLKERNKFLAREASSLKYLAEEFSIPVILTNQITTHLSGALASQADLVSPADDLSLSEGTSGSSCVIAALGNTWSHSVNTRLILQYLDSERRQILIAKSPLAPFTSFVYTIKEEGLVLQAYGNS | soluble
MAHHHHHHMSEKKEYINPAGLRLDGRRPQESRRMTLEFGKVLGCDGCCTVMSGLATVCASVYGPREVTNRLESKYNECIITCEVAIAAFAGEKRRAPQRRSKLSEEMSAAVLEVARSVVLLSQYPNSQIHICVEVLRQDGSDKAACINAACLALVDACVAMRDIVYAQTVGLIHAVDVVDLTTEEMRSQCPTICIAVKGHDPSSIVWMESNCRVTSEVVSRLVTVAQKSSEGVFAAALRGPLEEHAAAILKLQGNLGNGD | not soluble
MALKKHNVFVFSSNYTLYGDMSQRVMNTLAEFTPEIEVYSIDESFLNFEGFELLGDLKIYGTTIRNTVFRNTGIPVSIGIAPTKALAKLSNRIAKKNKEYNHVCVLEHHHHHH | not soluble
KAFIDIFDSFDPEPIACGSIAQVYKGVLEGKPVAVKILRPHLIDIINIDLSILDDFKPVMKKVMGVGKNFDIDAFLLEIREMLTREVDLRIEAVNMRRFEDNFKNVKNVSVPKIYPDYC | not soluble
SNTPSAEADWSPGLELHPDYKTWGPEQVCSFLRRGGFEEPVLLKNIRENEITGALLPCLDESRFENLGVSSLGERKKLLSYIQRLVQIHVDTMKVI | soluble
MAHHHHHHMAPQFYLGLQMSAIIAAIPDITRAHSAVEVSEMTDLLRAGVTPYARMLDDEDFNEEFVFGMYGMALDSWQRASYEEMTKKYHLALTAIHEAINPPFKLEHFQRITRLVLARAEHVPPADYYSGHLFLRRLRRRWRRLRKIPEPAQVALVPYVDLVNHSNRPNCTIRIGPSSVLSGESAITLFTLRDVLPGQELCRHYNFALNRASALFRYGFLPFDLISIVEHDAVDEHVMKSRDMFRAVSEEQLEHQRREAEEVARLEKLFQDAKQSHGGSGAAASTPPGRQPNPSLSDRVSRREE | not soluble
MSNDQLKSKLREFFDRQPDQSEKAHQDSKIFEVLYSQFLENQHCIDWNSWKFLEEKHQVTLKDLEPFDKSRFNILNKLAVIKLNGGLGTTMGCSKAKSLVEVREGYTFMDLAVLEHQKMCEAHNVDTPLYLMNSFYTDEDTKKYLAEKGYSNVKTFVQSKCPRLDAETKLPIEDENEDWGDDAWCPPGHGNIFQSLQNSGVLDQLLADGREIIFVSNIDNTGANTDLQIVQLMLDKNVDYIMECTPKTQVDVKGGTLIDIGGRMMHLEMPQVPAENLPDFCSTKVFKIFNTNNIYVNLKAVKKLLPDIKSEIIVNKKTIRSREVLQLEFSIGGCIKNFDNALCVHVERKRFRPVKNLGDLLSLRSTLCDLDHSTFKVHHNHELGAPPVISLDPSIYNSVEVVDLKFPHPLVMDNCSEFAVVGDVTFGKNVKLSGKVTVNGKTESPGVVPDGTVLKDQEYIAE | not soluble
MGEAAKDQTEEVIQAWYLDNKEEDQKLPHHKDPKEFVSLDKLAELGVLCWRLDADNYETDEELKRIRESRGYSYMDLCEVCPEKLPNYEEKVKMFFEEHLHIDEEIRYCLAGSGYFDVRDLNDIWIRVWVKKGGLIVFPAGIYHRFTVDSDNYMKAMRLFVGGPVWTAYNRPHDHLPARKAYMKKFLKVIGDRNIDASA | soluble
MIMHIPKSTYYHKWFIGATLVVPVLPLAAQTSPNLVFIMADQYRGDALGCLGKEPVKTPCLDHLASEGVLFTNAVSSYPVSSPARAMLMTGMYPLHNKVTGNCNSQTAPYGVELPQEARCWSDVLKDMNYRTGYIGKWHLDSPYKPYVDTYNNRGKVAWNEWCPPERRHGFEYWTAYGTYDYHLKPMYWDTTAPRDSFYYVNQWGPAYEADKAIEYIQTQKENKQPFALVVSMNPPHTGYELVPDKYKALYKDIDVEALCAHRPDIPAKGTEMGNYFRNNIRNYYACITGVDEQVGRIIETLKSNGLFENTIIVFTSDHGICMGAHNNAGKDIFYEEAMRIPMIISWPAKIKPRKDDHLMIAFADLYPSLLSLMGFRKEIPETVQTFDLSRHILGKSKKEVVQPYYYVQFDNHATGYRGLRTSTHTFAVHATNGKIDETVLFDRTKDPYQMDNIAGQSPRLVRQFNKQLKAWLLHTNDSFAHYLETVTK | not soluble
WKQKVGYPTNQTWGYIAEGLFVDDNEVANSPVQFGEYGAGDIKYRDVNKDGKITDLDQVPIGYPKEPEIVYGFGASYGYKNWDISVFFQGLARESFWIDYNNVSPYFNTVDTKVVGNRVGHNALAKFIADSHWSEDNRDAYAVWPRLSPTSIENNSKTSTWFMRDGSFLRLKQLEIGYTIPEKVTNKVGIKNLRFYVTGNNLLCFSKFKLWDPEMAGAGLGYPVQRVYNVGLNLTF | not soluble
LRIYSADNLLIGEFGEERRDFIKIEEVPKSLKQAILAAEDDRFYQHYGVDYIGVLRAIYSNFKAGGAHQGASTITMQVARNFFLTKEKTLTRKFSEALLAFKIEHSLEKDQILELYINQIYLGQRSYGFSSAAQSYFGKQLTDINLAEAAMLAGLPKAPSRFNPIVNL | not soluble
MRSPYLIGVFLAAGKSRRMGQNKLALPLKGENIGSLSLKTALSSRLDHVLVVERTEHASLEWIGAPYHAPPFQKRWSLHVCQDAEKGQGHSVSSGVRKAESMGADGIVILLADQPQLSVDHLNALVALAPESFAVSSFLGAFTPPIYFSSTCFPYVKGLKGDEGARRLLKSGQLGAGAVLEAKDSGELDDIDTPRGILEHHHHHH | not soluble
METNIVEVENFVQQSEERRGSAFTQEVKRYLERYPNTQYVDVLLTDLNGCFRGKRIPVSSLKKLEKGCYFPASVFAMDILGNVVEEAGLGQEMGEPDRTCVPVLGSLTPSAADPEFIGQMLLTMVDEDGAPFDVEPRNVLNRLWQQLRQRGLFPVVAVELEFYLLDRQRDAEGYLQPPCAPGTDDRNTQSQVYSVDNLNHFADVLNDIDELAQLQLIPADGAVAEASPGQFEINLYHTDNVLEACDDALALKRLVRLMAEKHKMHATFMAKPYEEHAGSGMHIHISMQNNRGENVLSDAEGEDSPLLKKMLAGMIDLMPSSMALLAPNVNSYRRFQPGMYVPTQASWGHNNRTVALRIPCGDRHNHRVEYRVAGADANPYLVMAAIFAGILHGLDNELPLQEEVEGNGLEQEGLPFPIRQSDALGEFIENDHLRRYLGERFCHVYHACKNDELLQFERLITETEIEWMLKNA | soluble
MAHHHHHHMLNKGFTATKIIGKRCFQWWDNLNTSWKFAIGFSVLFPPLWNYNERRKAREKQVYYNKSIRDYVFFDIAIENKYVGRVLIGLYSDQVPLSVENFIQLAEGYKVKDKYIGYRNTFIHKIYPGIGLVGGNVLNDKEGLSIYGKKFPDENFDMEFVQDGDVALFNEGPHSNSSQFIITFSPMPILHKHNVVIGTVLKGMDIIRMIENVGTKLGNPMYNVKIINCGLYRSLEQDGPPFFNMMHISDKGNKNIISKKEFESLSEQQRQSLMEEIGKSEKRR | soluble
MADLSSRVNELHDLLNQYSYEYYVEDNPSVPDSEYDKLLHELIKIEEEHPEYKTVDSPTVRVGGEAQASFNKVNHDTPMLSLGNAFNEDDLRKFDQRIREQIGNVEYMCELKIDGLAVSLKYVDGYFVQGLTRGDGTTGEDITENLKTIHAIPLKMKEPLNVEVRGEAYMPRRSFLRLNEEKEKNDEQLFANPRNAAAGSLRQLDSKLTAKRKLSVFIYSVNDFTDFNARSQSEALDELDKLGFTTNKNRARVNNIDGVLEYIEKWTSQRESLPYDIDGIVIKVNDLDQQDEMGFTQKSPRWAIAYKFPAEEHHHHHH | soluble
KSLTLVLHRDSGSLGFNIIGGRPSVDNHDGSSSEGIFVSKIVDSGPAAKEGGLQIHDRIIEVNGRDLSRATHDQAVEAFKTAKEPIVVQVLRRT | soluble
ELIEPEPRPLIITPSVIELPILRRRDIYMEVANVSIGRAADALARHFDVFVQLPLPNVNIFEVSELHMALRDLASHDNVSGVCQGFCGEGIAGEALVILSDSSVSDLKKLMKVPADSEELEELELLMDISNILVGSFLNGLGEQSEVRFFQSPPVLLGQHISIDSIIESTTGAFKRTMTFEVSYNIEGTSIRCDLLFMFVDESLPLLDNKLAYLMEEF | not soluble
MHAITNSGWVEVITGSMFSGKTEELLRRLRRAEIAGQDVAAVTPAVDDRYGEATLGSHAGRSWAATVVEPTAEGVASIPTLLNGEQVVAIDEANFFPAELVDVCQELAADGRRVVLSGTDQTFRGEPFEPVPQLMAIAEYVDKMRAICMQCGEPATRNQRLIEGEPAHYDDPTVMVGAEETYEARCRNCHVVRRELEHHHHHH | not soluble
KKRIQTEHCSYNRRRDYPLFKFIEYVLYWGHHYTVSISEKVQEELVKFMPRYQHKYRVVHNGVDLNRFPMTAKQAHDISEKATINIGMVGRLHEHKDHETLIHAIAKLPECYHLHLAGDGDRKASLQRLAQSLNVSPRVHFHGVVSDIPRFLSDMDIYVQSSHVE | not soluble
MKSDDLERLEESQEMQQLIHAAKEQYEQEKSVHPPVAYAAFAQNLRERQKDGKMKAKQEPPERETFEVKGGKRSGISPWWLVAACLLGGIIGYGISTTSDRQEAGLERLAVADTVIVVRERVDTVYREVEVPSQPLVASRSTVKSKSTGLTKEHVKQSRKAVQKAEPAFISIEFLQQQQNLPDPNSECYAANGMTVAEGNYPFHLLATVPCK | not soluble
MSLATKFQESEQQGRKREFMNQRNAFFILELELTQEETDAFLPLYNELDTKRYELWKDVRQKRALMERKAELTDADMELIINKSLDNKIAEARLEKEYYYKFKRVLPMRKVMALKVAERKFARLFLKSSYDEGHHHHHH | soluble
VPPPGTMVMVERKVGSWVDGQPIDLQRDWRSWEQLPDSLKVAVIAGEDQHFAEHHGFDLPAIQQALAHNERGGSIRGASTLSQQVAKNVFLWSGRSWLRKGLEAWFTLLIETLWTKQRILEVYLNSAEWGPGVFGAQAAARYHFGLDAERLSRTQASQLAAVLPSPLKWSAARPGPYVRQRAAWIRQQMWQLGGDDYLLRLER | not soluble
MGSDKIHHHHHHSDVVDLEPVDKFSELTAYGTEERCELAVVGAYDAAQCGMYVDPNDFGWARGYPFGAASILQGEMRGEDMNLTAQFYDYTYSATYNLTTANNVAMWETSFEAINRYNTVYAGIEGAVAAGVITEEKGNQYKGECLFLRALTYHNLMIHYALPYNVEGNNNYGMPIYTKAVNDPSQLAEQQSIGRSTVKDTYDQILSDLNNAESMLPDIIDADKIGRASKGAAIALKTRVYLHMRDWNNVVTEAKKLEGGRFILETNPATPFVSYKDNQESIFSIPNDSQDNGSVNGAMSAMMSAREGGRAMCPTSPTLYNSKFWKGDDKRRNLVLYRASDDYYFCDKYQNPQTREEYAPILRYAEVLLNEAEAAARAGDKTLALEKLNQVRDRSLADPATQTYKASDFANTKALVEAILWERRIEFQGEGRRWEDIHRLAADDLLPSGGIPAKIEYNNVKNQGAFVVGGEVKAEWFGNSKQFIPYTDKRFIWPIPLNDILRNPTLAAQQNAGW | not soluble
